Results reported in the supplement of paper PMC9112550, “Optimization of the antimicrobial peptide Bac7 by deep mutational scanning” (BMC Biology, 2022).

Test system: Escherichia coli TOP10
Assay: shrunken log2 fold change of peptide-encoding DNA abundance (4.5 h post-induction vs induction); higher = less antimicrobial activity (less host growth inhibition)
Details: time post-induction: 4.5 h; library: site-saturation at positions 5, 18, 19, 20
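Further: peptides expressed intracellularly from a pBAD plasmid library in pooled LB shake-flask culture, induced with 0.3% L-arabinose, DNA abundance read by NGS, three biological replicates, DESeq2 with apeglm shrinkage.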

Sequence	shrunken log2 fold change
RRIRQRPPRLPRPRPRPAILPRP	0.312
RRIRQRPPRLPRPRPRPALKPRP	0.0439
RRIRQRPPRLPRPRPRPAQTPRP	0.13
RRIRQRPPRLPRPRPRPAQVPRP	0.0263
RRIRQRPPRLPRPRPRPARKPRP	0.0862
RRIRQRPPRLPRPRPRPARYPRP	0.0932
RRIRQRPPRLPRPRPRPASDPRP	0.197
RRIRQRPPRLPRPRPRPATEPRP	-0.037
RRIRQRPPRLPRPRPRPATGPRP	0.0181
RRIRQRPPRLPRPRPRPAVEPRP	0.149
RRIRQRPPRLPRPRPRPAVHPRP	-0.0227
RRIRQRPPRLPRPRPRPAWQPRP	0.147
RRIRQRPPRLPRPRPRPAYPPRP	-0.167
RRIRQRPPRLPRPRPRPAYSPRP	-0.051
RRIRQRPPRLPRPRPRPCAHPRP	-0.256
RRIRQRPPRLPRPRPRPCAYPRP	-0.0948
RRIRQRPPRLPRPRPRPCCHPRP	-0.197
RRIRQRPPRLPRPRPRPCCPPRP	-0.192
RRIRQRPPRLPRPRPRPCFDPRP	-0.103
RRIRQRPPRLPRPRPRPCFKPRP	-0.407
RRIRQRPPRLPRPRPRPCFRPRP	-0.155
RRIRQRPPRLPRPRPRPCGDPRP	-0.0871
RRIRQRPPRLPRPRPRPCIMPRP	-0.748
RRIRQRPPRLPRPRPRPCIQPRP	-0.118
RRIRQRPPRLPRPRPRPCKDPRP	-0.294

Sequence	shrunken log2 fold change
RRIRQRPPRLPRPRPRPCNGPRP	-0.0134
RRIRQRPPRLPRPRPRPCNQPRP	-0.213
RRIRQRPPRLPRPRPRPCNVPRP	-0.0261
RRIRQRPPRLPRPRPRPCRPPRP	-0.184
RRIRQRPPRLPRPRPRPCRYPRP	-0.167
RRIRQRPPRLPRPRPRPCYQPRP	-0.0254
RRIRQRPPRLPRPRPRPDAFPRP	0.141
RRIRQRPPRLPRPRPRPDAMPRP	0.0556
RRIRQRPPRLPRPRPRPDARPRP	0.422
RRIRQRPPRLPRPRPRPDCHPRP	-0.0897
RRIRQRPPRLPRPRPRPDCNPRP	0.167
RRIRQRPPRLPRPRPRPDCTPRP	0.0901
RRIRQRPPRLPRPRPRPDDHPRP	-0.00211
RRIRQRPPRLPRPRPRPDDPPRP	-0.0062
RRIRQRPPRLPRPRPRPDEEPRP	-0.0445
RRIRQRPPRLPRPRPRPDEQPRP	0.0145
RRIRQRPPRLPRPRPRPDFMPRP	-0.316
RRIRQRPPRLPRPRPRPDGTPRP	0.103
RRIRQRPPRLPRPRPRPDHIPRP	-0.0197
RRIRQRPPRLPRPRPRPDIFPRP	-0.104
RRIRQRPPRLPRPRPRPDISPRP	0.0318
RRIRQRPPRLPRPRPRPDKAPRP	0.517
RRIRQRPPRLPRPRPRPDKVPRP	-0.0238
RRIRQRPPRLPRPRPRPDLNPRP	0.0947
RRIRQRPPRLPRPRPRPDMFPRP	0.0212

Sequence	shrunken log2 fold change
RRIRQRPPRLPRPRPRPDMYPRP	0.0381
RRIRQRPPRLPRPRPRPDNMPRP	-0.163
RRIRQRPPRLPRPRPRPDNSPRP	-0.0422
RRIRQRPPRLPRPRPRPDNTPRP	-0.178
RRIRQRPPRLPRPRPRPDPFPRP	-0.401
RRIRQRPPRLPRPRPRPDQDPRP	0.192
RRIRQRPPRLPRPRPRPDQQPRP	0.0334
RRIRQRPPRLPRPRPRPDQTPRP	-0.0116
RRIRQRPPRLPRPRPRPDQYPRP	-0.0114
RRIRQRPPRLPRPRPRPDRQPRP	0.0104
RRIRQRPPRLPRPRPRPDSCPRP	0.0169
RRIRQRPPRLPRPRPRPDSQPRP	0.0234
RRIRQRPPRLPRPRPRPDTAPRP	-0.0746
RRIRQRPPRLPRPRPRPDVKPRP	-0.0135
RRIRQRPPRLPRPRPRPDWGPRP	-0.0197
RRIRQRPPRLPRPRPRPDWIPRP	-0.035
RRIRQRPPRLPRPRPRPDWVPRP	0.116
RRIRQRPPRLPRPRPRPDYNPRP	-0.161
RRIRQRPPRLPRPRPRPECCPRP	0.267
RRIRQRPPRLPRPRPRPECSPRP	-0.0561
RRIRQRPPRLPRPRPRPECWPRP	0.358
RRIRQRPPRLPRPRPRPEDCPRP	0.0138
RRIRQRPPRLPRPRPRPEENPRP	0.00965
RRIRQRPPRLPRPRPRPEFGPRP	-0.0374
RRIRQRPPRLPRPRPRPEFLPRP	0.025

Sequence	shrunken log2 fold change
RRIRQRPPRLPRPRPRPEGIPRP	0.0201
RRIRQRPPRLPRPRPRPEGPPRP	0.172
RRIRQRPPRLPRPRPRPEIWPRP	0.618
RRIRQRPPRLPRPRPRPEKLPRP	-0.12
RRIRQRPPRLPRPRPRPELFPRP	-0.0927
RRIRQRPPRLPRPRPRPEMVPRP	-0.0549
RRIRQRPPRLPRPRPRPEMWPRP	0.483
RRIRQRPPRLPRPRPRPEPKPRP	0.244
RRIRQRPPRLPRPRPRPERWPRP	0.251
RRIRQRPPRLPRPRPRPESMPRP	0.00186
RRIRQRPPRLPRPRPRPEWEPRP	0.00902
RRIRQRPPRLPRPRPRPEYAPRP	-0.042
RRIRQRPPRLPRPRPRPEYEPRP	-0.157
RRIRQRPPRLPRPRPRPEYNPRP	-0.424
RRIRQRPPRLPRPRPRPFAVPRP	-0.99
RRIRQRPPRLPRPRPRPFCGPRP	0.0215
RRIRQRPPRLPRPRPRPFCKPRP	-0.0799
RRIRQRPPRLPRPRPRPFCMPRP	-0.0373
RRIRQRPPRLPRPRPRPFFDPRP	-0.0271
RRIRQRPPRLPRPRPRPFLAPRP	0.286
RRIRQRPPRLPRPRPRPFLLPRP	-0.165
RRIRQRPPRLPRPRPRPFLTPRP	-0.156
RRIRQRPPRLPRPRPRPFLWPRP	-0.0488
RRIRQRPPRLPRPRPRPFMFPRP	-0.144
RRIRQRPPRLPRPRPRPFNEPRP	-0.03

Sequence	shrunken log2 fold change
RRIRQRPPRLPRPRPRPFPMPRP	0.155
RRIRQRPPRLPRPRPRPFPPPRP	-0.0272
RRIRQRPPRLPRPRPRPFQAPRP	-0.207
RRIRQRPPRLPRPRPRPFSHPRP	-0.127
RRIRQRPPRLPRPRPRPFSPPRP	-0.0643
RRIRQRPPRLPRPRPRPFTGPRP	-0.0255
RRIRQRPPRLPRPRPRPFTTPRP	-0.0246
RRIRQRPPRLPRPRPRPFTVPRP	-0.0315
RRIRQRPPRLPRPRPRPGCKPRP	-0.0467
RRIRQRPPRLPRPRPRPGCTPRP	-0.269
RRIRQRPPRLPRPRPRPGDDPRP	0.176
RRIRQRPPRLPRPRPRPGEMPRP	0.0469
RRIRQRPPRLPRPRPRPGFHPRP	0.00101
RRIRQRPPRLPRPRPRPGFLPRP	0.107
RRIRQRPPRLPRPRPRPGGCPRP	0.546
RRIRQRPPRLPRPRPRPGGPPRP	0.0535
RRIRQRPPRLPRPRPRPGGQPRP	-0.137
RRIRQRPPRLPRPRPRPGICPRP	0.156
RRIRQRPPRLPRPRPRPGIHPRP	0.0177
RRIRQRPPRLPRPRPRPGIIPRP	0.0277
RRIRQRPPRLPRPRPRPGIWPRP	0.0216
RRIRQRPPRLPRPRPRPGKTPRP	-0.00992
RRIRQRPPRLPRPRPRPGKWPRP	0.362
RRIRQRPPRLPRPRPRPGLHPRP	-0.111
RRIRQRPPRLPRPRPRPGLRPRP	0.285

Sequence	shrunken log2 fold change
RRIRQRPPRLPRPRPRPGNCPRP	-0.0905
RRIRQRPPRLPRPRPRPGNWPRP	-0.0235
RRIRQRPPRLPRPRPRPGPFPRP	0.0672
RRIRQRPPRLPRPRPRPGPSPRP	0.242
RRIRQRPPRLPRPRPRPGQEPRP	-0.018
RRIRQRPPRLPRPRPRPGRLPRP	0.0206
RRIRQRPPRLPRPRPRPGRMPRP	0.0366
RRIRQRPPRLPRPRPRPGSAPRP	0.104
RRIRQRPPRLPRPRPRPGTDPRP	-0.0507
RRIRQRPPRLPRPRPRPGVEPRP	0.0735
RRIRQRPPRLPRPRPRPGVWPRP	0.611
RRIRQRPPRLPRPRPRPHAQPRP	0.384
RRIRQRPPRLPRPRPRPHCMPRP	-0.0175
RRIRQRPPRLPRPRPRPHDSPRP	-0.0135
RRIRQRPPRLPRPRPRPHEEPRP	-0.0442
RRIRQRPPRLPRPRPRPHHYPRP	-0.617
RRIRQRPPRLPRPRPRPHIEPRP	-0.58
RRIRQRPPRLPRPRPRPHIKPRP	-0.878
RRIRQRPPRLPRPRPRPHIWPRP	-0.333
RRIRQRPPRLPRPRPRPHNEPRP	-0.161
RRIRQRPPRLPRPRPRPHNPPRP	-0.33
RRIRQRPPRLPRPRPRPHPTPRP	-0.13
RRIRQRPPRLPRPRPRPHQCPRP	-0.401
RRIRQRPPRLPRPRPRPHQFPRP	0.0486
RRIRQRPPRLPRPRPRPHSLPRP	0.178
